Experimental findings from patent US20240398949A1 (OSLO UNIVERSITETSSYKEHUS HF, published 2024) are described below.

In one assay the target is T1, full-length HER2 (Homo sapiens (Human), UniProt P04626 23-1255).
T1 construct: Endogenous HER2 on cell lines
Put plainly: flow cytometry on cell lines expressing full-length HER2, goat anti-rat-PE secondary. As for the experimental part: Cells were washed, pelleted down and resuspended in 100 μl FACS buffer (containing phosphate-buffered saline (PBS), pH 7, 2% FBS, and 2 mM EDTA). […] Cells were washed twice, resuspended in 100 μL FACS buffer containing secondary antibody goat anti-rat-PE (0.26 μg/ml) and Fixable Viability Dye eFluor™ 780 and incubated for 30 minutes in the dark at 4° C. Cells were washed, resuspended in 200 μL FACS buffer, and analyzed on a LSR II flow cytometer (BD Biosciences, Franklin Lakes, NJ, USA). Data were analyzed with FlowJo software (v10.7.1, FlowJo LLC).
Background: A flow cytometer gives signals particle by particle.

Assay [1] has as its target T2, Peptide 1 of Table 3 (15mer of the p95HER2 extracellular domain).
T2 construct: Synthetic peptide immobilized on a cellulose membrane
T2 peptide: MPIWKFPDEEGACQP
Put plainly: peptide array on cellulose membrane, overlapping 15mers, signal intensity (area under curve), triplicate spots.

Assay [2] has as its target T3, Peptide 6 of Table 3 (15mer of the p95HER2 extracellular domain).
T3 construct: Synthetic peptide immobilized on a cellulose membrane
T3 peptide: THSCVDLDDKGCPAE
Described as above.

Assay [3] concerns the target T4, Peptide 8 of Table 3 (15mer of the p95HER2 extracellular domain).
T4 construct: Synthetic peptide immobilized on a cellulose membrane
T4 peptide: DDKGCPAEQRASPLT
The assay is described as above.

The target of assay [4] is T5, Peptide 2 of Table 3 (15mer of the p95HER2 extracellular domain).
T5 construct: Synthetic peptide immobilized on a cellulose membrane; also called KFPDEEGACQPCPIN
T5 peptide: KFPDEEGACQPCPIN
The description is as above.

Assay [5] deals with T6, Peptide 7 of Table 3 (15mer of the p95HER2 extracellular domain).
T6 construct: Synthetic peptide immobilized on a cellulose membrane
T6 peptide: VDLDDKGCPAEQRAS
The assay is described as above.

In assay [6] the target is T7, peptide 17 (FIGURE 3 d/e).
T7 construct: also called EEGA
T7 peptide: EEGA
Put plainly: peptide array on cellulose membrane, truncation series, signal intensity (area under curve), duplicate spots.

Assay [7] addresses T8, Peptide 11 of Table 4 (N-terminal truncation, proline-612 lost).
T8 peptide: IWKFPDEEGA
Described as above.

Assay [8] concerns the target T9, peptide 16 (FIGURE 3 d/e).
T9 construct: also called DEEGA
T9 peptide: DEEGA
The description is as above.

For assay [9], the target named is T10, Peptide 1 of Table 4 (HER2 glycine-603 to alanine-622).
T10 construct: Parent peptide of the N-terminal truncation and double-alanine substitution series
T10 peptide: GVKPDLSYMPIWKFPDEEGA
The description is as above.

The target of another assay is T11, peptide 9 (FIGURE 3 d/e).
T11 peptide: MPIWKFPDEEGA
Described as above.

Assay [10] has as its target T12, peptide 14 (FIGURE 3 d/e).
T12 construct: also called FPDEEGA
T12 peptide: FPDEEGA
The assay is described as above.

Assay [11] addresses T13, Peptide 10 of Table 4 (N-terminal truncation, methionine-611 lost).
T13 peptide: PIWKFPDEEGA
The assay is described as above.

The target of the next assay is T14, peptide 7 (FIGURE 3 d/e).
T14 peptide: SYMPIWKFPDEEGA
The description is as above.

In assay [12] the target is T15, Peptide 12 of Table 4 (N-terminal truncation, isoleucine-613 lost).
T15 peptide: WKFPDEEGA
The description is as above.

Assay [13] deals with T16, Peptide 13 of Table 4 (N-terminal truncation, tryptophan-614 lost).
T16 peptide: KFPDEEGA
The assay is described as above.

For another assay, the target named is T17, peptide 8 (FIGURE 3 d/e).
T17 peptide: YMPIWKFPDEEGA
The description is as above.

The target of assay [14] is T18, peptide 15 (FIGURE 3 d/e).
T18 construct: also called PDEEGA
T18 peptide: PDEEGA
The assay is described as above.

In a further assay the target is T19, peptide 6 (FIGURE 3 d/e).
T19 peptide: LSYMPIWKFPDEEGA
The assay is described as above.

Another assay has as its target T20, peptide 2 (FIGURE 3 d/e).
T20 peptide: VKPDLSYMPIWKFPDEEGA
The description is as above.

The next assay concerns the target T21, peptide 5 (FIGURE 3 d/e).
T21 peptide: DLSYMPIWKFPDEEGA
The assay is described as above.

The next assay addresses T22, peptide 4 (FIGURE 3 d/e).
T22 peptide: PDLSYMPIWKFPDEEGA
The assay is described as above.

The target in the next assay is T23, peptide 3 (FIGURE 3 d/e).
T23 peptide: KPDLSYMPIWKFPDEEGA
The description is as above.

B1: Oslo-2 antibody (monoclonal antibody against p95HER2) (antibody, V domains shown)
VH: EVQILETGGGLVKPGGSLRLSCATSGFNFNDYFMNWVRQAPGKGLEWIAQIRNKNYNYATYFAESLEGRFTISRDDSKSSVYLQVNSLRAEDTALYYCTELRYDYWGQGVMVTVSS
VL: DIVMTQSPFSLAVSEGEMVTINCKSSQSLLSSGNQKNNLAWYQQKPGQSPKLLIYYASTRQSGVPDRFIGSGSGTDFTLTISDVQAEDLADYYCLQHYSSPYTFGAGTKLELK
notes: Monoclonal antibody from a rat hybridoma (mClone 1), detected with goat anti-rat-PE; also called the antibody of interest; the antibody
As for B1, the binding result with full-length HER2 is “no binding (tested: 10 µg/ml (not on the sheet))”; in [1], “binds”; in assay [2] it was “no binding”; in [3], “no binding”; in [4], “no binding”; in [5] it was “no binding”. Besides, the binding result in assay [6] is listed as “no binding”; in [7] it was “binds”; in assay [8], “no binding”; in assay [9], “binds”; with peptide 9 (FIGURE 3 d/e) it was “binds”; in assay [10] it was “no binding”. The binding result in [11] is “binds”; with peptide 7 (FIGURE 3 d/e), “binds”; in [12], “binds”; in assay [13], “no binding”; with peptide 8 (FIGURE 3 d/e), “binds”; in [14], “no binding”. For the same molecule, the binding result with peptide 6 (FIGURE 3 d/e), with peptide 2 (FIGURE 3 d/e), in the assay with peptide 5 (FIGURE 3 d/e), with peptide 4 (FIGURE 3 d/e) and with peptide 3 (FIGURE 3 d/e) was “binds” in each case.
